# Results published in article PMC6497670.
# Legend:
# Assay in all cases: PELDOR/DEER EPR; MTSSL-labelled protein reconstituted in soybean phosphatidylcholine liposomes (1:20 protein/lipid), 50 mM KPi pH 8.0, spin concentration 80-130 µM, 20% deuterated glycerol, Q-band, 50 K; monomer to dimer
# [1] = molecular target: SLC26Dg K353R1 (single-cysteine mutant K353C labelled with MTSSL) (Deinococcus geothermalis)
# [2] = molecular target: SLC26Dg L385R1 (single-cysteine mutant L385C labelled with MTSSL) (Deinococcus geothermalis)
# [3] = molecular target: SLC26Dg V367R1 (single-cysteine mutant V367C labelled with MTSSL) (Deinococcus geothermalis)
substance,measurement,setting,value
SLC26Dg K353R1 (single-cysteine mutant K353C labelled with MTSSL) (natural protein),stoichiometry N,[1],2
SLC26Dg L385R1 (single-cysteine mutant L385C labelled with MTSSL) (natural protein),stoichiometry N,[2],2
SLC26Dg V367R1 (single-cysteine mutant V367C labelled with MTSSL) (natural protein),stoichiometry N,[3],2
